Measured values: the supplement of paper PMC11780869

System: Bacillus subtilis
Experiment: cleaved RNA product abundance (RNA/gDNA barcode ratio) relative to median wild-type variant (ratio to wild type); higher = more accumulation of the downstream cleavage product
Conditions: cleavage site: cggR-gapA (positions -7 to +36 mutated)
Method: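 MPRA in B. subtilis. Mutagenized RNase Y cleavage-site regions (9% mutation rate) were inserted into a barcoded reporter mRNA (truncated aprE or tetM). Cells were grown in LB at 37°C to OD600 0.3. The cleaved RNA isoform was gel-purified and its barcodes counted; the RNA:gDNA barcode ratio was normalised to the median wild-type variant, and the median over barcodes is reported per variant. The printed sequence is the variable window only; the reporter flanks are not printed.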

[1] = experiment (reporter, strain, medium): exp 2b: truncated aprE reporter, strain BJT200
[2] = experiment (reporter, strain, medium): exp 4a: truncated aprE reporter, strain BJT201 with 2% xylose (RNase J1 expressed)
[3] = experiment (reporter, strain, medium): exp 6: tetM reporter, strain 168

In the case of “ACAGACGAAGGAGCCGCAAAGAAGTAATTAAGGGTTGAATAATCCCTCAATATAAATATCTCTCACTTATTTAAA”, the “cleaved RNA product abundance” value [1] is reported as 0.0812 and the “cleaved RNA product abundance” value [2] is reported as 0.162.
For “ACAGACGAAGGAGCCGCAAAGAAGTAATTAAGGTATGAATAATCCCTCAATATAAATATCTCTCACTTATTTAAA”, the “cleaved RNA product abundance” value [1] was 0.0974 and the “cleaved RNA product abundance” value [2] was 0.112.
For “ACAGACGAAGGAGCCGCAAAGAAGTAATTAAGGTATTAATAATCCCTCAATATAAATATCTCTCACTTATTTAAA”, the “cleaved RNA product abundance” value [2] was 0.0968.
For “ACAGACGAAGGAGCCGCAAAGAAGTAATTAAGTGATGAATAATCCCTCAATATAAATATCTCTCACTTATTTAAA”, the “cleaved RNA product abundance” value [2] was 0.0789.
In the case of “ACAGACGAAGGAGCCGCAAAGAAGTAATTAATGGATGAATAATCCCTCAATATAAATATCTCTCACTTATTTAAA”, the “cleaved RNA product abundance” value [1] is reported as 0.105, the “cleaved RNA product abundance” value [2] is reported as 0.121 and the “cleaved RNA product abundance” value [3] is reported as 0.0999.
“ACAGACGAAGGAGCCGCAAAGAAGTAATTATGGGATGAATAATCCCTCAATATAAATATCTCTCACTTATTTAAA” was tested, and the “cleaved RNA product abundance” value [2] was 0.169.
In the case of “ACAGACGAAGGAGCCGCAAAGAAGTAATTCAGGGATGAATAATCCCTCAATATAAATATCTCTCACTTATTTAAA”, the “cleaved RNA product abundance” value [2] is reported as 0.325.
“ACAGACGAAGGAGCCGCAAAGAAGTACTTAAGGGATGAATAATCCCTCAATATAAATATCTCTCACTTATTTAAA” was tested, and the “cleaved RNA product abundance” value [2] was 0.243.
“ACAGACGAAGGAGCCGCAAAGAAGTATTTAAGGGATGAATAATCCCTCAATATAAATATCTCTCACTTATTTAAA” was tested, and the “cleaved RNA product abundance” value [1] was 0.275 and the “cleaved RNA product abundance” value [2] was 0.288.
With “ACAGACGAAGGAGCCGCAAAGAAGTCAATAAGGGATGAATAATCCCTCAATATAAATATCTCTCACTTATTTAAA” the “cleaved RNA product abundance” value [2] was 0.284.
“ACAGACGAAGGAGCCGCAAAGAAGTCATAAAGGGATGAATAATCCCTCAATATAAATATCTCTCACTTATTTAAA” was tested, and the “cleaved RNA product abundance” value [2] was 0.198.
“ACAGACGAAGGAGCCGCAAAGAAGTCATGAAGGGATGAATAATCCCTCAATATAAATATCTCTCACTTATTTAAA” was tested, and the “cleaved RNA product abundance” value [2] was 0.325.
For “ACAGACGAAGGAGCCGCAAAGAAGTCATTAAAGGATGAATAATCCCTCAATATAAATATCTCTCACTTATTTAAA”, the “cleaved RNA product abundance” value [2] was 0.158.
In the case of “ACAGACGAAGGAGCCGCAAAGAAGTCATTAACGGATGAATAATCCCTCAATATAAATATCTCTCACTTATTTAAA”, the “cleaved RNA product abundance” value [2] is reported as 0.128.
For “ACAGACGAAGGAGCCGCAAAGAAGTCATTAAGAGATGAATAATCCCTCAATATAAATATCTCTCACTTATTTAAA”, the “cleaved RNA product abundance” value [1] was 0.108 and the “cleaved RNA product abundance” value [2] was 0.137.
In the case of “ACAGACGAAGGAGCCGCAAAGAAGTCATTAAGCGATGAATAATCCCTCAATATAAATATCTCTCACTTATTTAAA”, the “cleaved RNA product abundance” value [2] is reported as 0.0665.
“ACAGACGAAGGAGCCGCAAAGAAGTCATTAAGGAATGAATAATCCCTCAATATAAATATCTCTCACTTATTTAAA” was tested, and the “cleaved RNA product abundance” value [1] was 0.0849 and the “cleaved RNA product abundance” value [2] was 0.139.
For “ACAGACGAAGGAGCCGCAAAGAAGTCATTAAGGCATGAATAATCCCTCAATATAAATATCTCTCACTTATTTAAA”, the “cleaved RNA product abundance” value [2] was 0.102.
In the case of “ACAGACGAAGGAGCCGCAAAGAAGTCATTAAGGGACGAATAATCCCTCAATATAAATATCTCTCACTTATTTAAA”, the “cleaved RNA product abundance” value [2] is reported as 0.154.
With “ACAGACGAAGGAGCCGCAAAGAAGTCATTAAGGGATAAATAATCCCTCAATATAAATATCTCTCACTTATTTAAA” the “cleaved RNA product abundance” value [1] was 0.195 and the “cleaved RNA product abundance” value [2] was 0.308.
In the case of “ACAGACGAAGGAGCCGCAAAGAAGTCATTAAGGGATGAAAAATCCCTCAATATAAATATCTCTCACTTATTTAAA”, the “cleaved RNA product abundance” value [1] is reported as 0.173 and the “cleaved RNA product abundance” value [2] is reported as 0.2.
“ACAGACGAAGGAGCCGCAAAGAAGTCATTAAGGGATGAATAAACCCTCAATATAAATATCTCTCACTTATTTAAA” was tested, and the “cleaved RNA product abundance” value [2] was 0.176.
For “ACAGACGAAGGAGCCGCAAAGAAGTCATTAAGGGATGAATAATCCCACAATATAAATATCTCTCACTTATTTAAA”, the “cleaved RNA product abundance” value [1] was 0.142 and the “cleaved RNA product abundance” value [2] was 0.2.
“ACAGACGAAGGAGCCGCAAAGAAGTCATTAAGGGATGAATAATCCCCCAATATAAATATCTCTCACTTATTTAAA” was tested, and the “cleaved RNA product abundance” value [2] was 0.113.
With “ACAGACGAAGGAGCCGCAAAGAAGTCATTAAGGGATGAATAATCCCTCAAAATAAATATCTCTCACTTATTTAAA” the “cleaved RNA product abundance” value [2] was 0.203.
“ACAGACGAAGGAGCCGCAAAGAAGTCATTAAGGGATGAATAATCCCTCAATATAAACATCTCTCACTTATTTAAA” was tested, and the “cleaved RNA product abundance” value [2] was 0.333.
“ACAGACGAAGGAGCCGCAAAGAAGTCATTAAGGGATGAATAATCCCTCAATATAAATAACTCTCACTTATTTAAA” was tested, and the “cleaved RNA product abundance” value [2] was 0.249.
“ACAGACGAAGGAGCCGCAAAGAAGTCATTAAGGGATGAATAATCCCTCAATATAAATATCTCTCACTTATTTAAA” was tested, and the “cleaved RNA product abundance” value [1] was 0.186, the “cleaved RNA product abundance” value [2] was 0.255 and the “cleaved RNA product abundance” value [3] was 0.244.
In the case of “ACAGACGAAGGAGCCGCAAAGAAGTCATTAAGGGATGAATAATCCCTGAATATAAATATCTCTCACTTATTTAAA”, the “cleaved RNA product abundance” value [2] is reported as 0.136.
With “ACAGACGAAGGAGCCGCAAAGAAGTCATTAAGGGATGAATAATCCGTCAATATAAATATCTCTCACTTATTTAAA” the “cleaved RNA product abundance” value [1] was 0.124 and the “cleaved RNA product abundance” value [2] was 0.173.
“ACAGACGAAGGAGCCGCAAAGAAGTCATTAAGGGATGAATAATCCTTCAATATAAATATCTCTCACTTATTTAAA” was tested, and the “cleaved RNA product abundance” value [2] was 0.189.
“ACAGACGAAGGAGCCGCAAAGAAGTCATTAAGGGATGAATAATCGCTCAATATAAATATCTCTCACTTATTTAAA” was tested, and the “cleaved RNA product abundance” value [2] was 0.107.
“ACAGACGAAGGAGCCGCAAAGAAGTCATTAAGGGATGAATAATGCCTCAATATAAATATCTCTCACTTATTTAAA” was tested, and the “cleaved RNA product abundance” value [2] was 0.13.
With “ACAGACGAAGGAGCCGCAAAGAAGTCATTAAGGGATGATTAATCCCTCAATATAAATATCTCTCACTTATTTAAA” the “cleaved RNA product abundance” value [2] was 0.217.
“ACAGACGAAGGAGCCGCAAAGAAGTCATTAAGGGATGTATAATCCCTCAATATAAATATCTCTCACTTATTTAAA” was tested, and the “cleaved RNA product abundance” value [1] was 0.16.
In the case of “ACAGACGAAGGAGCCGCAAAGAAGTCATTAAGGGATTAATAATCCCTCAATATAAATATCTCTCACTTATTTAAA”, the “cleaved RNA product abundance” value [2] is reported as 0.236.
With “ACAGACGAAGGAGCCGCAAAGAAGTCATTAAGGTATGAATAATCCCTCAATATAAATATCTCTCACTTATTTAAA” the “cleaved RNA product abundance” value [1] was 0.0941.
In the case of “ACAGACGAAGGAGCCGCAAAGAAGTCATTAAGTGATGAATAATCCCTCAATATAAATATCTCTCACTTATTTAAA”, the “cleaved RNA product abundance” value [2] is reported as 0.0976.
“ACAGACGAAGGAGCCGCAAAGAAGTCATTAATGGATGAATAATCCCTCAATATAAATATCTCTCACTTATTTAAA” was tested, and the “cleaved RNA product abundance” value [1] was 0.0927 and the “cleaved RNA product abundance” value [2] was 0.171.
“ACAGACGAAGGAGCCGCAAAGAAGTCTTTAAGGGATGAATAATCCCTCAATATAAATATCTCTCACTTATTTAAA” was tested, and the “cleaved RNA product abundance” value [2] was 0.181.
With “ACAGACGAAGGAGCCGCAAAGAAGTGAATAAGGGATGAATAATCCCTCAATATAAATATCTCTCACTTATTTAAA” the “cleaved RNA product abundance” value [2] was 0.296.
With “ACAGACGAAGGAGCCGCAAAGAAGTGACTAAGGGATGAATAATCCCTCAATATAAATATCTCTCACTTATTTAAA” the “cleaved RNA product abundance” value [2] was 0.344.
With “ACAGACGAAGGAGCCGCAAAGAAGTGATAAAGGGATGAATAATCCCTCAATATAAATATCTCTCACTTATTTAAA” the “cleaved RNA product abundance” value [2] was 0.223.
With “ACAGACGAAGGAGCCGCAAAGAAGTGATGAAGGGATGAATAATCCCTCAATATAAATATCTCTCACTTATTTAAA” the “cleaved RNA product abundance” value [1] was 0.446.
With “ACAGACGAAGGAGCCGCAAAGAAGTGATTAAAGGATGAATAATCCCTCAATATAAATATCTCTCACTTATTTAAA” the “cleaved RNA product abundance” value [2] was 0.19.
In the case of “ACAGACGAAGGAGCCGCAAAGAAGTGATTAACGGATGAATAATCCCTCAATATAAATATCTCTCACTTATTTAAA”, the “cleaved RNA product abundance” value [1] is reported as 0.129 and the “cleaved RNA product abundance” value [2] is reported as 0.0991.
